Measured values as given in US20160122387A1, “Angiotensin Peptide and Pharmaceutical Compositions for Disease Treatment” (UNIVERSIDADE FEDERAL DE MINAS GERAIS - UFMG, priority 2012, published 2016).
Square brackets hold non-standard residues; d marks the D form. Ends that are not written are not given here.

Assays:
rat receptor Mas (rat) = rat receptor Mas (rat) (UniProt P12526); experiment: cell-based or functional assay
Mas receptor [1] = target: T1, Mas receptor (Rattus norvegicus, UniProt P12526); experiment: Vasorelaxation in SHR aortic rings in the presence of Mas receptor antagonists A-779 and D-Pro
T1 construct: from tissue; host or cells: SHR rat thoracic aorta rings and mesenteric artery rings
T1 sequence (P12526 1-324): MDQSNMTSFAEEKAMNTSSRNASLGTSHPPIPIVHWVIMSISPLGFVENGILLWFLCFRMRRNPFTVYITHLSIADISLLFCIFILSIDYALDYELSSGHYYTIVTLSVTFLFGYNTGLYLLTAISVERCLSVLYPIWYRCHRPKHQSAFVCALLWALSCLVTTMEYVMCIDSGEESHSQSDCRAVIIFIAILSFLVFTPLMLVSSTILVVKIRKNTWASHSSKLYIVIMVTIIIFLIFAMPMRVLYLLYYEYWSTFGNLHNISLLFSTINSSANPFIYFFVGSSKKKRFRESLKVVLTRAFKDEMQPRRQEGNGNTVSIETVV
Description: Three- to four-mm rings of the descending thoracic aorta in spontaneously hypertensive rats (SHR), free from adipose and connective tissue, were maintained in a gasified solution (95% 02 and 5% CO2) of Krebs-Henseleit, at 37° C. under a tension of 1.0 g for 1 hour for stabilization. The presence of functional endothelium was assessed by the ability of acetylcholine [ACh] (10 μmol/L) to induce more than 70% relaxation of vessels pre-contracted with phenylephrine (0.1 μmol/L). The mechanical activity, recorded isometrically by a force transducer, was fed into a recorder-amplifier and a computer equipped with an analog-digital converter board, using CVMS data acquisition/recording software.
The SHR vessels were pre-contracted to the same voltage level (approximately 1.0 g tension) at the submaximal concentration of phenylephrine (0.1 μmol/L). Mas receptor antagonists, A-779 and D-Pro, were added to […] immediately before adding the arg0-Ang-(1-7) in increasing cumulative concentrations. Results are presented as mean±SEM. One-way analysis of variance (ANOVA) with the Newman-Keuls post-test for multiple comparisons was used to compare the concentration response curves obtained in the aortic rings. The result was expressed as the percentage of decrease in peak concentration induced by phenylephrine. All statistical analyses were considered significant when p<0.05.

Mas receptor [2] = target: T1, Mas receptor; experiment: Vasorelaxation in SHR mesenteric rings in the presence of Mas receptor antagonist A-779
Description: Rings (2.0 mm) of mesenteric artery (2nd and/or 3rd branches) in spontaneously hypertensive rats (SHR), free from adipose and connective tissue, were maintained in a gasified solution (95% 02 and 5% CO2) of Krebs-Hanseleit, at 37° C. After a 15 minute stabilization period, the artery was stretched, gradually, to a resting tension considered optimal with respect to its inner diameter. For this, in each arterial segment, the voltage/diameter was calculated by internal circumference which corresponds to a transmural pressure of 100 mmHg for a relaxed vessel in situ (IC100) using software specific for standardization resistance arteries. For the experiments, the arteries were maintained with an internal circumference, IC1, calculated using the formula IC1=0.90×IC100, in which the development of strength is maximum, as previously described by Mulvany and Halpern (1977). The effective luminal diameter was determined according to the I1=IC1/π equation. […]
The presence of functional endothelium was assessed by the ability of acetylcholine [ACh] […] The mechanical activity was recorded isometrically using a myograph, which was connected to a system for data acquisition and to a computer.
The SHR vessels were pre-contracted with sub-maximal concentrations of phenylephrine (0.1 μmol/L). […] The result was expressed as a percentage of decrease in peak concentration induced by phenylephrine. […]

Emax of vasorelaxation by arg0-Ang-(1-7) in SHR mesenteric artery rings in the presence of A-779 (rat receptor Mas (rat)) | Emax of vasorelaxation by arg0-Ang-(1-7) in SHR rat aortic rings in the presence of A-779 (rat receptor Mas (rat)) | Emax of vasorelaxation by arg0-Ang-(1-7) in SHR rat aortic rings in the presence of D-Pro (rat receptor Mas (rat)) | Substance | antagonist effect on the vasorelaxation produced by arg0-Ang-(1-7) (Mas receptor [1]) | antagonist effect on the vasorelaxation produced by arg0-Ang-(1-7) (Mas receptor [2])
14.1% | 14% | 11% | arg0-angiotensin-(1-7) (peptide) | – | –
– | – | – | Asp-Arg-Val-Tyr-Ile-His-D-Ala (DRVYIH[dA]) [A-779] | blocked the vasorelaxant effect of the peptide | blocked the vasorelaxant effect of the peptide
